# Source: the DeepSol protein solubility set
# Test: soluble on expression in E. coli; label from the status in PepcDB or PDB records
row,Sequence,soluble on expression in E. coli
1,MSLYSDSVTHCLQTCNSPYQKSEKDHRRLSLFAARLFLYNLALFNQFDISMTQSIWRSVTPQFEQFNKVFENYPNLAPISLIEIQPRLTSALEQFVHLKGFSRILLINAPDNSIYRSLFKDALLEQDLDVPVVSTETLDISEILGQVKVEHGGLVHKTSGYLEQANGGYLIVSANLLLANPRYWPTVKAAVLGETVSPINCDPKSPLPNRLGSSYDVKLIVVGDRTQLGDLDFLDADIHSGLCLFSELELDLKIEEETIEDYLGYLRWLCEQYNLPSLTCSAIQSLMTAGARYTEDQYYAPLCLMWHRALLEEARLESEEPLIDAEHIEIALDKRYLRESYLPERALDDILDGQVIIETQGEQVGQVNGLTVIEVTGHPMPYGEPARISCVIHFGDGDIADVERKVELGGNLHAKGMMIMQAFVSSALNLDGSLPFSASIVFEQSYSEVDGDSASLAELCSLVSALSEYPIDQQIAVTGAVDQFGRVQAVGGLNEKIEGFYRVCCHQGLTGEQGVILPSSNLKHLALHKSVVESIKNGEFNIWPVSTVDEAIPLLMGKPFRGEDEGHHHHHH,not soluble
2,MTDVKTQNAISLKGSAQLVKEFFHFGLNSILYQRALYPSDSFKREKKYGLTLWVAHEKKLQAFMDPLLQQVEYWLAKRQLKRLVMVISEVKTKEVVERWQFDIHTENLAEEGYEIV,not soluble
3,MGSDKIHHHHHHMSASLQTADRVRRWRIEGELTTRTPLHMGSGSFEARQELRRAPQTDDIAKAKAVLLDSDQRPCLTGSGLKGAMLAWANAYLPDPERDRLLFGCEPDGDGKGQGGRLEFQTAFLSQNKENTSPSSSPTPFWMSDRRTDVDTGVRINRASGTALDKHLFYKEVVAPGTAFRMVLDLDLPACCTDKGHALVNRVLALLEAFNLSDDDRVPPLTLGAMTGRGHGRFAWRLTNLSRVTDASARTWIDKGAPGTWAAALTPVPDKGPWQTTAKATLEVVQSPATLVCEVTLTFDHRFLISEPARVVTEDEARTRSGKTRTAGIMPKVDGKGNAVLPTASIKGVLRSRAERILATLTGDASAFEHAPGRGPAGQDNPAADMMTDRCLPTSRLFGAASWRAALDVEPFRPLSGHTTVAHQELVAIDRFTGGVSGSAKYDIDAFHRPQFKGRLRLNLRRSRLEDVGLLVLLLRDLAEGDLSFGYGGTKGYGGTQAMVTVQVRGTTAGTQALPLPEETGGAGIDTPVSWSSIQDSALASPLREAVAAFRRLYCKGEAV,not soluble
4,ESYAIFSLNAQFDALTINKARKLYRGKTRLLQGQRIELSDWPETSVERTEFYRYLLNKNLAQMNAHWASLSFSGKARPPKVIDQPSIEILLAWMREQPNRIGYAPVDSLPSDAHVLYVV,not soluble
5,MQKIGEWLKEHDVKVTTIYFGGGTPTSITAEEMDLLYEEMVRSFPDVKNIREITVEAGRPDTITEEKLAVLNKYDIDRISINPQSYENETLKAIGRHHTVEETIEKYHLSRQHGMNNINMDLIIGLPGEGVKEFRHSLSETEKLMPESLTVHTLSFKRASEMTRNKHKYKVAGREEVSQMMEDAVAWTKEHGYVPYYLYRQKNILGNLENVGYSLPGQESIYNIMIMEEVQTIIGIGCGAASKFIDRDTGKITHFANPKDPKSYNERFEHYTDEKIKYLEQIFEKTTKQHLEHHHHHH,not soluble
6,MGHHHHHHSHMAPPRIGTHNGTFHCDEALACALLRLLPEYRDAEIVRTRDPEKLASCDIVVDVGGEYDPRRHRYDHHQRSFTETMSSLSPGKPWQTKLSSAGLIYLHFGHKLLAQLLGTSEEDSMVGTLYDKAGFKRAMDLVQEEFLQRLDFYQHSWLPARALVEEALAQRFQVDPSGEIVELAKGACPWKEHLYHLESGLSPPVAIFFVIYTDQAGQWRIQCVPKEPHSFQSRLPLPEPWRGLRDEALDQVSGIPGCIFVHASGFIGGHRTREGALSMARATLAQRSYLPQIS,soluble
7,MLKKTLAALALGSALFTAGQAMAADYKIDKEGQHAFIEFRIKHLGYSWLYGRFNDFDGSFTFDEKNPSADKVKVTINTNSVDTNHAERDKHLRSGDFLNVSKNPTATFESTEVKANGDSADITGNLTLNGVTKPVTIKAKLIGQGDDPWGGYRAGFEGSATLKLKDFGIKMDLGPASQEVELLLSVEGIRQ,not soluble
8,MNLRSVFTVEQQRILQRYYENGMTNQSKNCFQLILQCAQETKLDFSVVRTWVGNKRRKMSSKNSESGTATTGTSLSAPDITVRNVVNIARPSSQQSSWTSANNDVIVTGIYSPASSSSRQGTNKHTDTQITEAHKIPIQKTATKNDTEFQLHIPVQRQVAHCKNASLLLGEKTIILSRQTSVLNAGNSVFNHAKKNYGNSSVQASEMTVPQKPSVCHRPCKIEPVGIQRSYKPEHTGPALHNLCGQKPTIRDPYCRTQNLEIREVFSLAVSDYPQRILGGNAPQKPSSAEGNCLSIAMETGDAEDEYAREEELASMRAQIPSYSRFYESGSSLRAENQSTTLPGPGRNMPNSQMVNIRDMSDNVLYQNRNYHLTPRTSLHTASSTMYSNTNPLRSNFSPHFASSNQLRLSQNQNNYQISGNLTVPWITGCSRKRALQDRTQFSDRDLATLKKYWDNGMTSLGSVCREKIEAVATELNVDCEIVRTWIGNRRRKYRLMGIEVPPPRGGPADFSEQPESGSLSALTPGEEAGPEVGEDNDRNDEVSICLSEGSSQEEPNEVVPNDARAHKEEDHHAVTTDNVKIEIIDDEESDMISNSEVEQVNSFLDYKNEEVKFIENELEIQKQKYFKLQTFVRSLILAMKADDKEQQQALLSDLPPELEEMDFNHASLEPDDTSFSVSSLSEKNVSESL,soluble
9,MNQTLETGTTTVGITLKDAVIMATERRVTMENFIMHKNGKKLFQIDTYTGMTIAGLVGDAQVLVRYMKAELELYRLQRRVNMPIEAVATLLSNMLNQVKYMPYMVQLLVGGIDTAPHVFSIDAAGGSVEDIYASTGSGSPFVYGVLESQYSEKMTVDEGVDLVIRAISAAKQRDSASGGMIDVAVITRKDGYVQLPTDQIESRIRKLGLILHHHHHH,soluble
10,MGSDKIHHHHHHMAEERVEPKPIDLGEYKFGFHDDVEPVLSTGKGLNEGVIRELSAAKGEPEWMLEFRLKSYETFKKMPMQTWGADLSEIDFDDLIYYQKPSDKPARSWDDVPEKIKETFERIGIPEAERAYLAGASAQYESEVVYHNMKEEFQKLGIIFTDTDSALKEYPDLFKQYFAKLVPPTDNKLAALNSAVWSGGTFIYVPKGVKVDIPLQTYFRINNENIGQFERTLIIVDEGASVYYVEGCTAPTYSSNSLHAAIVEIFALDGAYMRYTTIQNWSDNVYNLVTKRAKAQKDATVEWIDGNLGAKTTMKYPSVYLDGEGARGTMLSIAFANAGQHQDTGAKMIHNAPHTSSSIVSKSIAKGGGKVDYRGQVTFNKNSKKSVSHIECDTIIMDDLSASDTIPFNEIHNSQVALEHEAKVSKISEEQLYYLMSRGLSESEATEMIVMGFVEPFTKELPMEYAVELNRLISYEMEGSVG,not soluble
11,MGNAAAYQRYRRPDCATEIDFSTENHSGREKIMSESLSWMQTGDTLALSGELDQDVLLPLWEMREEAVKGITCIDLSRVSRVDTGGLALLLHLIDLAKKQGNNVTLQGVNDKVYTLAKLYNLPADVLPR,not soluble
12,MGSDKIHHHHHHMNDALITDALIRGRHAKRGFHRERPVPLETVRDILAVAKYAPSSSNTQPWRCYVVIGDARDRLANAAVEAYRADPENLTPEYPFFPKPLHEPYSARFNTFRGQLGDAQGVPRSDKAGRRRDVERQFRFFDAPIGLIFTMDRRLEWASFLCYGCFLQNIMLAARARGLDTCPQQIWSLQYAVLREQLDIPEGEMVVAGMSLGYADDSLPENNMALRRLELEEFVSVIEG,not soluble
13,GMANKVEHRLSEQQMKALTDLPLVFLITHDQSKSWPITHAISWVYAKDETTIRFAIEADSLLVKTLADHPVFTLIFFADQSTYSLTCTDVAAWETTARLPLKVALYEGQIKEVRDILFYGAAVSDRPRVYKTYDEAAAMQLDQQIQDILKG,soluble
14,MIYFIRKKKWLKQLEKGEAMKYAILIGDGMADYPIEKLGNRTILQAARTPAMDSIAARGRAGLAKTVPDSFPPGSDVANMSILGYDPATYYSGRAPLEAASMGVALAADDVAFRCNLITTEHGMIKDYSAGHISSDEAEILIDTLDYELSTENIRFYPGISYRHLIVAGNNLGAETECTPPHDITGEKIDKYLPRGKDGEFFSELIEASKVVLELHPVNLKRVEEGKNPANSIWVWGQGYAPKFTAFMKLYGKKGAVISAVDLLKGIGIYAGLDVIEVHGATGYLDTNYEGKVRAAIEALKTRDLVFVHVEAPDEAGHEGSIEKKLKAVEDFDSRIVAPILEYAENSDEPFTILVLPDHPTPISVKTHTRDPIPFAIYRTDKPETDNVEAFDEESVKNGSMGLVKASDLIGILIKSLEHHHHHH,soluble
15,MTLRTKDGLTLYTRRWDVESPRAVICLVHGLGEHSGRYEHVARFFNENGISFAAFDLRGHGRSEGKRGHAEYQQLMDDITLFLQSLDYDCPKILYGHSMGGNLALNYILRYDPDIAGGIISAPFLALPKELPKHLFFILKLLNVVAPSIQLSNGIDPNLISRDREVVEAYVSDPLVHDKISPRFILQSLEAGKWALENADRLRKPILLIHGTADQITSYRASQEFAKRAGELCKFVSYEGFYHEPHNEPEKERVLADMLKWIEEVI,not soluble
16,MGSDKIHHHHHHMDIRSLKLYLHLCDSLHFAKTAEQMHMSPSTLSRTLQRLEDEVGGKLFERDNRSVALTHAGKEFKLFAEHTLSQWLSLKGKVDPQQAQLHGQLSLYCSVTAAYSHLPKLLDRFRSIHPNVDIKLATGDAANAVNELNRNRADIAIIALPDNLASSLFFTAIDKVPLSLIVPTITCPVQQAISQANIAWQDLPYIVPEHGPGRQRADNWFKAMGFKPNIYAQVAGQEAIASMVALGCGVAISPEVVINNSPVRDRIQMLASPITIPAFELGFCCKKKRLEEAVLKAFLASWAIE,not soluble
17,MAHHHHHHMTNDTEQEQSPSAELAAAAPEPQPSQPQEFYSLRGESHNAVDQEKYGRARTHIAGLGHVSAKDVFKHYRRSWLTPFFGSNEPEPTLQQEGTQHPCQIFSREVHQCLEDHHNSFAFCQTRVAAFQQCLREFSI,not soluble
18,MEVYIPSFRYEESDLERGYTVFKIEVLMNGRKHFVEKRYSEFHALHKKLKKCIKTPEIPSKHVRNWVPKVLEQRRQGLETYLQAVILENEELPKLFLDFLNVRHLPSLPKAESCGSFDETESEESSKLSHQPVLLFLRDPYVLPAASDFPNVVIEGVLHGIFYPHLQPR,soluble
19,MEQINEKNFNFYNRIGLDTFQALAKDGGFSTFVDLEIAYRYIQPTENIAEIGAGYGRCIDFLLAKKHQGKIIAVEQSPKLCEHLRAVYSSTIKIVEGDIYKVSFDHQIDAALWMWSGMIDFSVEEQAAVIKHIHELLTQKGKLFIDIPRIGIKTIADHIDQQRIKLTTDFGEIECYIPLSSEVKEYADAAGFTRVDEINYETATDKKRTMYILMK,not soluble
20,MGSDKIHHHHHHMIHKRSNSPNMKPIIEIKNLAAGYDGRTVLHDVNLNVYERDFLGIIGPNGGGKTTLIKCILGLLKPTAGEINFHAPTEASSHSQLSTSNLPLSLGYLPQYSTIDRKFPISVEEVILSGLSIQKSLTSRFTPEQREKGKHIIARMGLEGLEHRSIGQLSGGQLQRALLGRAIISDPSVLILDEPSTYIDKRFEARLYELLAEINKECAIILVSHDIGTVLQQVKSIACVNETLDYHPDTGVSTEWLERNFNCPIELLGHGTLPHRVLGEHHHHH,not soluble
